B1: InflaMab: 210 kDa bispecific mouse antibody against IL-1R1 and NLRP3; light chain SEQ ID NO: 57, heavy chain SEQ ID NO: 59 (antibody)
heavy: MGWTLVFLFLLSVTAGVHSQIQLVQSGPELRKPGETVRISCKASGYPFTTAGLQWVQKMSGKGLKWIGWMNTQSEVPKYAEEFKGRIAFSLETAASTAYLQINNLKTEDTATYFCAKSVYFNWRYFDVWGAGTTVTVSSAKTTAPSVYPLAPVCGDTTGSSVTLGCLVKGYFPEPVTLTWNSGSLSSGVHTFPAVLQSDLYTLSSSVTVTSSTWPSQSITCNVAHPASSTKVDKKIEPRGPTIKPCPPCKCPAPNLLGGPSVFIFPPKIKDVLMISLSPIVTCVVVDVSEDDPDVQISWFVNNVEVHTAQTQTHREDYNSTLRVVSALPIQHQDWMSGKEFKCKVNNKDLPAPIERTISKPKGSVRAPQVYVLPPPEEEMTKKQVTLTCMVTDFMPEDIYVEWTNNGKTELNYKNTEPVLDSDGSYFMYSKLRVEKKNWVERNSYSCSVVHEGLHNHHTTKSFSRTPGKGSAGGSGGDSEVQLVESGGGLVKPGGSLKLSCAASGFTFSDYYMYWVRQTPEKRLEWVATISDGGTYTYYPDSVKGRFTISRDNAKNNLYLQMNSLKSEDTAMYYCARGWVSTMVKLLSSFPYWGQGTLVTVSAGGGGSGGGGSGGGGSQAVVTQESALTTSPGETVTLTCRSSTGAVTTSNYANWVQEKPDHLFTGLIGGTNNRAPGVPARFSGSLIGDKAALTITGAQTEDEAIYFCALWYSNYWVFGGGTKLTVLGQPK
light: MVSSAQFLGLLLLCFQGTRCDIVMTQSPATLSVTPGDRVSLSCRASQSISDYLSWYQQRSHESPRLIIKYASQSISGIPSRFSGSGSGSDFTLSINSVEPEDVGVYYCQHGHSFPLTFGSGTKLELKRADAAPTVSIFPPSSEQLTSGGASVVCFLNNFYPKDINVKWKIDGSERQNGVLNSWTDQDSKDSTYSMSSTLTLTKDEYERHNSYTCEATHKTSTSPIVKSFNRNEC
B2: F226 7A7-1E1-2D5: anti-NLRP3 monoclonal antibody from hybridoma clone, sequenced and used in the bispecific (antibody, V domains shown)
VH: EVQLVESGGGLVKPGGSLKLSCAASGFTFSDYYMYWVRQTPEKRLEWVATISDGGTYTYYPDSVKGRFTISRDNAKNNLYLQMNSLKSEDTAMYYCARGWVSTMVKLLSSFPYWGQGTLVTVSAAKTTPPSVYPLA
VL: QAVVTQESALTTSPGETVTLTCRSSTGAVTTSNYANWVQEKPDHLFTGLIGGTNNRAPGVPARFSGSLIGDKAALTITGAQTEDEAIYFCALWYSNYWVFGGGTKLTVLGQPKSSPSVTLFPPSTEKLSL

Columns and labels:
THP1 cells [1] = test: Internalization of pHrodo red labelled bi-specific Ab in THP1 cells; assay type: cell-based; conditions: pHrodo red labelled Ab 1 ug/ml 30 min, LPS then ATP; confocal image
Protocol: (§1) Internalization of Inflamab—see FIG. 35. THP1 cells, for FIG. 35, were cultured in 96-well plates at 100,000 cells/200 ul complete media. Differentiation of THP1 cells was induced by PMA (100 ug/ml for 72 hours). Following 24 hours of rest, differentiated THP1 cells were stimulated with LPS (1 ug/ml) for 3 hours, treated with a pHrodo red labelled IL-1 r/NLRP3 Ab (1 ug/ml) for 30 minutes, followed by ATP (5 mM) for 1 hour. The internalization of the Ab was tracked using a pHrodo red labelled bi-specific Ab that only fluoresces when internalized.

THP1 cells [2] = test: Caspase-1 activation in THP1 cells (FAM-FLICA staining, confocal); assay type: cell-based
Protocol: THP1 cells, for FIG. 34, were cultured in 96-well plates at 100,000 cells/200 ul complete media. PMA ([…] for 72 hours) was used to differentiated THP-1 cells into macrophages. Following 24 hours of rest, differentiated THP1 cells were stimulated with LPS (1 ug/ml) for 3 hours, treated with the IL-1R1/NLRP3 Ab (1 ug/ml) for 30 minutes, followed by ATP (5 mM) for 1 hour. Caspase-1 activation was assessed by staining cells with a non-cytotoxic Fluorescent Labelled Inhibitor of Caspase-1 (FAM-FLICA) and DAPI (nuclear stain). Cells were treated with LPS alone (negative control), LPS+ATP (positive control), mouse IgG2a (1 ug/ml, Ab control), or IL-1 r/NLRP3 bi-specific Ab (1 ug/ml, experimental). Representative confocal images are shown for each group. Green=active caspae-1 and blue=Dapi/nuclear stain.
as §1

THP1 cells [3] = test: IL-1β release from LPS/ATP-stimulated differentiated THP1 cells (ELISA); assay type: cell-based; conditions: PMA-differentiated THP1, LPS 1 μg/ml 3 h, Ab 0.0025-2.5 ng/ml (FIG. 33a) or 1 nM (FIG. 33b) 30 min, ATP 5 mM 1 h; supernatant ELISA
Protocol: THP1 cells, for FIGS. 33a and b, were cultured in 96-well plates at 100,000 cells/200 μl complete media. PMA (100 μg/ml for 72 hours) was used to differentiate THP-1 cells into macrophages. Following 24 hours of rest, differentiated THP1 cells were stimulated with LPS (1 μg/ml) for 3 hours, treated with MCC950 (1 μM) or the IL-1R1/NLRP3 Ab in a dose dependent fashion from 0.0025 ng/ml to 2.5 ng/ml for FIG. 33a or with IL-1R1/NLRP3 Ab (1 nM) for FIG. 33b or with IgG control antibody for 30 minutes, followed by ATP (5 mM) for 1 hour. IL-1 release was measured in the supernatant by ELISA.

[4] = tested on: microbead-induced mouse model of glaucoma; test: Microbead-induced mouse model of glaucoma; assay type: in vivo
Protocol: In the current study, WT C57BL/6J mice are receiving a single intravitreal injection of Inflamab (final vitreous concentration of 2.5, 25, or 250 ng/ml) on Day 0, immediately preceding the injection of microbeads and mice receiving saline only (no beads) are serving as a non-glaucoma control. RGC function is currently being measured by pERG using a fully integrated ERG system for rodents (Celeris). Changes in pERG amplitude is being measured in mice that received microbeads only and compared to mice that received microbeads plus Inflamab (final vitreous concentration of 2.5, 25, and 250 ng/ml) or saline only (no beads) [FIG. 42]. […] Visual acuity using an optomotor reflex-based spatial frequency threshold test, as well as RGC and axon quantification, is performed to further corroborate the neuroprotective effect of Inflamab and including additional control groups (microbead-injected mice treated with the appropriate IgG control antibody).
RGC analysis in WT mice treated with the NLRP3 inhibitor MCC950—see FIG. 41. […]
RGC function in WT mice treated with the NLRP3 inhibitor InflaMab—see FIG. 42. […] RGC function was measured by pERG using a fully integrated ERG system for rodents (Celeris) and changes in pERG amplitude was measured in mice that received microbeads only and compared to mice that received microbeads plus Inflamab (2.5, 25, and 250 ng/ml) or saline only (no beads). […]

NLRP3 inflammasome = NLRP3 inflammasome (Homo sapiens, UniProt Q96P20); test: NLRP3 assembly in vitro assay; conditions: among hybridoma clones
Chain of NLRP3 inflammasome (Q96P20 whole entry): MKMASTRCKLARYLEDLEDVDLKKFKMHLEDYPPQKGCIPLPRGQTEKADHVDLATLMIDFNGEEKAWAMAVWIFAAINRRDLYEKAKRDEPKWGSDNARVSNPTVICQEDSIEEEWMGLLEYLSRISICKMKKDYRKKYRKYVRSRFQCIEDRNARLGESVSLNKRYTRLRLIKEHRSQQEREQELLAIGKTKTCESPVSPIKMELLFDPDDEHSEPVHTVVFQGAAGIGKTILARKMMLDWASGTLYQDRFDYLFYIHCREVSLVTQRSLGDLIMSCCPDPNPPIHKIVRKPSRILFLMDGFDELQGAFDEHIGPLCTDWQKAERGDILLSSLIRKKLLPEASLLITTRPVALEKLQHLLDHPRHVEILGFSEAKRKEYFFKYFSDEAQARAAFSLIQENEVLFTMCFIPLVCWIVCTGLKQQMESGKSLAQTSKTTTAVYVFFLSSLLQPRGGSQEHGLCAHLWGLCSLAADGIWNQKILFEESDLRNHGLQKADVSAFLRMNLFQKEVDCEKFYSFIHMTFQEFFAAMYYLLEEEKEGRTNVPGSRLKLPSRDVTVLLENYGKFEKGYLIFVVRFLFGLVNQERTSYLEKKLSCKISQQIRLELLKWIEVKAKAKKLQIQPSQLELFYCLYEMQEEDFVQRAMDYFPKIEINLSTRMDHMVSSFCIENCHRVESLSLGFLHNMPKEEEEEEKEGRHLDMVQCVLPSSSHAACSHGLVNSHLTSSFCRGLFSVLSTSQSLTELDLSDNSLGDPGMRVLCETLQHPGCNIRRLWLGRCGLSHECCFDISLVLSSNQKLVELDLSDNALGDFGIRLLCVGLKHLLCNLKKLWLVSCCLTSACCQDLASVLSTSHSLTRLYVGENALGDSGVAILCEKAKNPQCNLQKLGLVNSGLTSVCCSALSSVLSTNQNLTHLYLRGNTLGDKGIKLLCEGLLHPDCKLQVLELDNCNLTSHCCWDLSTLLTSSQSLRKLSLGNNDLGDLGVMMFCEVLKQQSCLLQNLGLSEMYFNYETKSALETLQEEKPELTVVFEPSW

Molecule | internalization of the Ab (THP1 cells [1]) | caspase-1 activation (THP1 cells [2]; differentiated THP1, LPS 1 ug/ml 3 h, Ab 1 ug/ml 30 min, ATP 5 mM 1 h, FAM-FLICA) | caspase-1 activation in THP1 cells that have internalized the Ab (THP1 cells [2]; pHrodo red labelled Ab 1 ug/ml, compared to THP1 cells that did not internalize the Ab) | IL-1β release (THP1 cells [3]) | death of RGCs ([4]; InflaMab, FIG. 42 title) | RGC function (pERG amplitude) ([4]; single intravitreal injection Day 0, final vitreous concentration 250 ng/ml, compared to microbeads only or Inflamab at 2.5 or 25 ng/ml, preliminary) | preventing NLRP3 assembly (NLRP3 inflammasome)
B1 | internalization | prevents caspase-1 activation | significant reduction of caspase-1 activation | prevents IL-1β release | prevents death of RGCs | recovery of RGC function | –
B2 | – | – | – | – | – | – | most active

Source: patent US12227579B2, “Bispecific antibody targeting IL-1R1 and NLPR3” (University of Ulster, priority 2018, dated 2025)
